# Source: paper PMC11910092, “Modulating the complement system through epitope-specific inhibition by complement C3 inhibitors” (The Journal of Biological Chemistry, 2025)
# T1: recombinant C345C domain of C3 and C3b (Homo sapiens)
# T1 construct: C345C domain of complement C3; also called C345C domain (recombinant expression); source: HEK293-F, transfected (pCDNA3.1(+)), secreted, purified (Ni-NTA agarose, anion exchange GigaCap Q-650M)
# T1 chain: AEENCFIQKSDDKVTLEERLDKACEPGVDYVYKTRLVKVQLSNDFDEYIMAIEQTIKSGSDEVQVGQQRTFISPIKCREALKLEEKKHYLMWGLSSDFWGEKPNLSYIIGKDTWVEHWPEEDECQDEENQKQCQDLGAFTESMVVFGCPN
# B1: MI3 (nanobody) (VHH)
# VHH: DVQLQESGGGLVQPGGSLRLSCVASGSTFSTYHMGWYRQAPGKQRELIAGITSGGRISYVDSVKGRFNISRDNAKNTVYLQMNTLKPEDTAVYYCNMLGEFAGRPPWGQGTQVTVSS
# notes: proprietary nanobody; Provided by Quaerite Biopharm Research; source: HEK293-F, transfected (pCDNA3.1(+)), secreted, purified (Ni-NTA agarose, ion exchange GigaCap Q-650S); not shown: 6xHis (after a GGGGS linker), C-terminal, kept
# Key:
# Assay in all cases: ELISA; plate coated with 2 ug/ml C3, C3b or recombinant C345C domain overnight at 4 °C; MI3 dilution series in PBST, 37 °C, 1 h; detected with HRP anti-His antibody (HRP anti-VHH antibody for the C345C domain)
# Conditions in all cases: both partners purified
# [1] = biological target: T2, complement C3 (Homo sapiens (plasma-derived), UniProt P01024)
# T2 construct: Bought protein; it works with normal human serum and anti-human detection antibodies; source: bought: Complement Technology (cat#A113)
# T2 sequence (P01024 23-667): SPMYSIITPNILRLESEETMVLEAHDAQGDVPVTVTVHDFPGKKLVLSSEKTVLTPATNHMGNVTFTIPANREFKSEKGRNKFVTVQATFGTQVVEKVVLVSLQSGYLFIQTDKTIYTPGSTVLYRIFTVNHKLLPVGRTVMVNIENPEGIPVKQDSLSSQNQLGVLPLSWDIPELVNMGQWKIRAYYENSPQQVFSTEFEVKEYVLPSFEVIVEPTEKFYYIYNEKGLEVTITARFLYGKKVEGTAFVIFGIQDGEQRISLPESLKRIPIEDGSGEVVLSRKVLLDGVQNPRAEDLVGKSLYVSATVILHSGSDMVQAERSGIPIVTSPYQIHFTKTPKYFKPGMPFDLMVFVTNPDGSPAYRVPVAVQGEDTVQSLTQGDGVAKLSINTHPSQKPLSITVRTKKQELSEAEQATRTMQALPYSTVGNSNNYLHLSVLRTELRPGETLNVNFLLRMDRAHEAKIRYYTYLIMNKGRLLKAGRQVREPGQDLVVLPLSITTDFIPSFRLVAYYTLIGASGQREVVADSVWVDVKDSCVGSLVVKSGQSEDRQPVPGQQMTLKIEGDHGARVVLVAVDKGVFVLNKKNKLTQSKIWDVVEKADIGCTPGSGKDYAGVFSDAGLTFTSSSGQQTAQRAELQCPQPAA
# [2] = biological target: T3, complement C3b (Homo sapiens (plasma-derived), UniProt P01024)
# T3 construct: Bought protein; source: bought: Complement Technology (cat#A114)
# T3 sequence (P01024 23-667): as above
# [3] = biological target: T1, recombinant C345C domain of C3 and C3b
binder,measurement,setting,value
B1,EC50,[1],0.17 nM
same,EC50,[2],0.14 nM
same,EC50,[3],0.19 nM
